Source: publication PMC3027617 (2011)

Target: 2F5 epitope scaffold ES1
Test: SPR

B1: 2F5 monoclonal antibody (antibody, V domains shown)
VH: RITLKESGPPLVKPTQTLTLTCSFSGFSLSDFGVGVGWIRQPPGKALEWLAIIYSDDDKRYSPSLNTRLTITKDTSKNQVVLVMTRVSPVDTATYFCAHRRGPTTLFGVPIARGPVNAMDVWGQGITVTISS
VL: ALQLTQSPSSLSASVGDRITITCRASQGVTSALAWYRQKPGSPPQLLIYDASSLESGVPSRFSGSGSGTEFTLTISTLRPEDFATYYCQQLHFYPHTFGGGTRVDVR
koff: 0.00109 s⁻¹
